B1: Cyclin-F, residues 28 to 80; numbered along this chain, P41002 (parent)
chain: RNLTILSLPEDVLFHILKWLSVEDILAVRAVHSQLKDLVDNHASVWACASFQE

Variants of: B1
Test: abundance fitness (aPCA) (normalised: wild type 0, dead -1); higher = more abundant; growth selection in yeast, the domain comes from the species named
Details: Homo sapiens

Abundance fitness of substitutions, site by site:
N41: D -0.435 | Y -0.569 | F -0.692 | E -0.039 | P -0.59 | L -0.306
A47: T -0.43 | G 0.193 | S -0.114 | D -0.062 | M -0.095 | E -0.365 | C -0.218 | V -0.513 | F 0.386 | L -0.235 | I -0.178 | H -0.29 | N -0.088 | W -0.374 | K -0.181 | Y -0.458 | R -0.14
V45: K 0.181 | P -0.061 | W 0.1 | N 0.031 | M -0.082 | I -0.026 | H 0.137 | D 0.289 | S 0.149 | T 0.131 | E 0.362 | C -0.027 | L -0.076 | G -0.149 | Y 0.154 | R -0.031 | F -0.016
Q52: R -0.02 | E -0.39 | H -0.108 | V -0.123 | N -0.286 | Y -0.382 | C -0.213 | T -0.135 | M -0.256 | W -0.19 | P -0.377 | I -0.109 | F -0.241 | L -0.07 | K 0.011 | D -0.296
V39: K -0.767 | D -0.655 | P -0.931 | T -0.787 | R -0.793 | S -0.445 | L -0.287 | W -0.648 | Q -0.362 | M -0.781 | F -0.819 | I -0.074 | E -0.819
H42: I -0.075 | M -0.64 | P -0.526 | C -0.237 | F -0.418 | T -0.487 | L -0.546 | R -0.175 | K -0.068 | N -0.35 | W -0.45 | D -0.746 | A -0.442 | S -0.347 | Y -0.365 | V -0.716 | E -0.8 | G -0.467
W46: D -0.043 | E -0.016 | N -0.128 | H -0.38 | M -0.27 | R -0.058 | F -0.364 | Q -0.136 | A -0.283 | K -0.289 | L -0.114 | I -0.294 | S -0.314 | Y -0.469 | V -0.415 | C -0.4 | P -0.386 | T -0.3 | G -0.065
D40: F -0.828 | Q -0.49 | R -0.749 | P -0.791 | V -0.606 | T -0.444 | H -0.552 | W -1.03 | A -0.917 | S -0.432 | L -0.919 | E -0.684 | Y -0.862 | N -0.664 | C -0.912 | M -0.884 | K -0.805 | G -0.77
F51: L 0.092 | R -0.187 | A -0.138 | S -0.194 | W -0.279 | M 0.085 | G -0.158 | I -0.111 | K -0.202 | Y -0.215 | H -0.123 | T -0.014 | P -0.184 | V -0.034 | E -0.38
A43: G -0.409 | C -0.006 | V -0.616 | W -0.264 | E -0.343 | T -0.416 | L -0.605 | R -0.273 | N -0.303 | I -0.577 | P -0.039
A49: D 0.248 | W -0.443 | S 0.092 | P 0.126 | L -0.395 | H -0.091 | I -0.409 | R 0.037 | M -0.51 | Y -0.341 | G 0.089 | C -0.185 | K 0.17 | E -0.125 | F -0.663 | Q 0.088 | V -0.609

From the Human Domainome abundance scans (Beltran et al. 2025)
